Measured values published in EP3470428A1 (Numab Innovation AG, dated 2019).

B1: PRO963 (= PRO1051): 38_02_A04 sc01 scDb-i/33-03-G02 sc01 scDb-o/19-01-H04-sc03 scFv (other)
chain: DIQMTQSPSSLSASVGDRVTITCQASQSINDYLAWYQQKPGKAPKLLIYKASTLASGVPSRFSGSGSGTDFTLTISSLQPEDFATYYCQQGYIITDIDNVFGTGTKVTVLGGGGGSQVQLQESGPGLVKPSETLSLTCKVSGFSFSNSYWICWIRQPPGKGLEWIGCTFVGSSDSTYYANWAKGRVTISVDSSKNQFSLKLSSVTAADTAVYYCARHPSDAVYGYANNLWGQGTLVTVSSGGGGSGGGGSGGGGSGGGGSIQMTQSPSSLSASVGDRVTITCQASQSINNVLAWYQQKPGKAPKLLIYRASTLASGVPSRFSGSGSGTDFTLTISSLQPEDFATYYCQSSYGNYGDFGTGTKVTVLGGGGGSQVQLQESGPGLVKPSETLSLTCKVSGFSFSSGYDMCWIRQPPGKGLEWIGCVVAGSVDITYYASWAKGRVTISVDSSKNQFSLKLSSVTAADTAVYYCARKDAYSDAFNLWGQGTLVTVSSGGGGSGGGGSIQMTQSPSSLSASVGDRVTITCQSSESVYSNNQLSWYQQKPGQPPKLLIYDASDLASGVPSRFSGSGSGTDFTLTISSLQPEDFATYYCAGGFSSSSDTAFGGGTKLTVLGGGGGSGGGGSGGGGSGGGGSEVQLVESGGGLVQPGGSLRLSCAASGFSLSSNAMGWVRQAPGKGLEYIGIISVGGFTYYASWAKGRFTISRDNSKNTVYLQMNSLRAEDTATYFCARDRHGGDSSGAFYLWGQGTLVTVSS
notes: Trispecific scTriabody (scDb-scFv): PD-L1 x CD137 x serum albumin
B2: PRO1013 (anti-PD-L1 scFv, CDR set of clone 37-20-B03 grafted on a VH1 framework) (scFv)
chain: DIQMTQSPSSLSASVGDRVTITCQASQSIGTYLAWYQQKPGKAPKLLIYRAFILASGVPSRFSGSGSGTDFTLTISSLQPEDFATYYCQSNFYSDSTTIGPNAFGTGTKVTVLGGGGGSGGGGSGGGGSGGGGSQVQLVQSGAEVKKPGASVKVSCKASGFSFNSDYWIYWVRQAPGQGLEWMGSIYGGSSGNTQYASWAQGRVTMTRDTSISTAYMELSSLRSEDTAVYYCARGYVDYGGATDLWGQGTLVTVSS
B3: PRO830 (anti-PD-L1 scFv, CDR set of clone 33-03-G02 grafted on a VH4 framework) (scFv)
chain: DIQMTQSPSSLSASVGDRVTITCQASQSINDYLAWYQQKPGKAPKLLIYKASTLASGVPSRFSGSGSGTDFTLTISSLQPEDFATYYCQQGYIITDIDNVFGTGTKVTVLGGGGGSGGGGSGGGGSGGGGSQVQLQESGPGLVKPSETLSLTCKVSGFSFSSGYDMCWIRQPPGKGLEWIGCVVAGSVDITYYASWAKGRVTISVDSSKNQFSLKLSSVTAADTAVYYCARKDAYSDAFNLWGQGTLVTVSS
B4: PRO966 (= PRO1052): 38_27_C05 sc01 scDb-i/33-03-G02 sc01 scDb-o/19-01-H04-sc03 scFv (other)
chain: DIQMTQSPSSLSASVGDRVTITCQASQSINDYLAWYQQKPGKAPKLLIYKASTLASGVPSRFSGSGSGTDFTLTISSLQPEDFATYYCQQGYIITDIDNVFGTGTKVTVLGGGGGSQVQLQESGPGLVKPSETLSLTCKVSGFSFNNDYDMCWIRQPPGKGLEWIGCIDTGDGSTYYASWAKGRVTISVDSSKNQFSLKLSSVTAADTAVYYCAREAASSSGYGMGYFDLWGQGTLVTVSSGGGGSGGGGSGGGGSGGGGSIQMTQSPSSLSASVGDRVTITCQSSQSVYDNNWLAWYQQKPGKAPKLLIYRASNLASGVPSRFSGSGSGTDFTLTISSLQPEDFATYYCQGTYLSSNWYWAFGTGTKVTVLGGGGGSQVQLQESGPGLVKPSETLSLTCKVSGFSFSSGYDMCWIRQPPGKGLEWIGCVVAGSVDITYYASWAKGRVTISVDSSKNQFSLKLSSVTAADTAVYYCARKDAYSDAFNLWGQGTLVTVSSGGGGSGGGGSIQMTQSPSSLSASVGDRVTITCQSSESVYSNNQLSWYQQKPGQPPKLLIYDASDLASGVPSRFSGSGSGTDFTLTISSLQPEDFATYYCAGGFSSSSDTAFGGGTKLTVLGGGGGSGGGGSGGGGSGGGGSEVQLVESGGGLVQPGGSLRLSCAASGFSLSSNAMGWVRQAPGKGLEYIGIISVGGFTYYASWAKGRFTISRDNSKNTVYLQMNSLRAEDTATYFCARDRHGGDSSGAFYLWGQGTLVTVSS
notes: Trispecific scTriabody (scDb-scFv)

Key:
[1] = molecular target: human CD137 expressed on cells (human, UniProt Q07011 24-255); test: cell-based or functional assay
[2] = molecular target: human PD-L1 expressed on cells (human, UniProt Q9NZQ7 19-290); test: cell-based or functional assay
human serum albumin = molecular target: T1, human serum albumin (human, UniProt P02768 25-609); test: SPR (Biacore T200); SA amine-coupled; pH 5.5
T1 construct: Amine-coupled to a CM5 chip; assay at pH 5.5; also called HSA; human SA

biotinylated human PD-L1 [3] = molecular target: T2, biotinylated human PD-L1 (human, UniProt Q9NZQ7 19-238, limits assumed, biotinylated); test: competition ELISA; coated human B7.1 as competitor; biotinylated PD-L1 pre-incubated with inhibitor
T2 construct: also called biotinylated PD-L1

biotinylated human PD-L1 [4] = molecular target: T2, biotinylated human PD-L1; test: competition ELISA; coated human PD-1 as competitor; biotinylated human PD-L1 pre-incubated with inhibitor
[5] = molecular target: human PD-L1-Fc chimeric protein (human, UniProt Q9NZQ7 19-239); test: SPR (Biacore T200); PD-L1-Fc captured by anti-human Fc

Row | Binder | max. activation (%), NF-kB reporter gene, CHO-PD-L1; HSA: yes, 24h [1] | IC50 (ng/ml), neutralization of PD-L1/PD-1 interaction, NFAT-luciferase reporter gene assay, with HSA [2] | binding result (human serum albumin) | IC50 (biotinylated human PD-L1 [3]) | IC50 (biotinylated human PD-L1 [4]) | IC50 (ng/ml), neutralization of PD-L1/PD-1 interaction, NFAT-luciferase reporter gene assay [2] | binding result [5]
1 | B1 | 369% | 275 ng/mL | binds | – | – | – | –
2 | B2 | – | – | – | 4.05 ng/mL | 0.57 ng/mL | 21.3 ng/mL | –
3 | B3 | – | – | – | 12.9 ng/mL | 3.4 ng/mL | 42.9 ng/mL | –
4 | B4 | – | – | binds | – | – | – | binds
